Experimental data from patent US20250171560A1 (INNOVATIVE CELLULAR THERAPEUTICS, published 2025).

Key:
[1] = target: T1, recombinant UPK2 extracellular domain (UPK2-His) (Homo sapiens (Human), UniProt O00526 85-155); assay: phage ELISA, purified scFv phage on UPK2-his coated at 0.5 ug/ml, OD490
T1 construct: Made in E. coli; not shown: His tag
T1 sequence: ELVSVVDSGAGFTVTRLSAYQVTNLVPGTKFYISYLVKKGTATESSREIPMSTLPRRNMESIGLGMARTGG

[2] = target: T1, recombinant UPK2 extracellular domain …; assay: ELISA, antibody dilution series on UPK2-his coated at 0.5 ug/ml, OD490
Protocol: The ability of recombinant whole antibodies to bind antigen UPK2-His was analyzed using a classical ELISA method.

[3] = target: T1, recombinant UPK2 extracellular domain …; assay: SPR, BIAcore X-100; antibody captured by anti-human antibody on chip, UPK2-His as mobile phase; exponent as printed, koff/kon gives 2.34e-8
Protocol: (§1) The affinity of the eight monoclonal antibodies was analyzed using GE's BIAcore X-100. Affinity analysis was performed using a conventional procedure by first capturing the human monoclonal antibody with an anti-human antibody coated on a chip, and then using different concentrations of recombinant UPK2-His as the mobile phase for affinity analysis. […] Among them, the binding and dissociation of S7F11/S7G7 were slow, and the binding of S3D10 was too slow. When the three monoclonal antibodies were analyzed by BIAcore X-100 for affinity analysis, the automatic fitting of KD was poor, and the data was for reference only.

[4] = target: T1, recombinant UPK2 extracellular domain …; assay: SPR, BIAcore X-100; antibody captured by anti-human antibody on chip, UPK2-His as mobile phase
Protocol: as §1

[5] = target: T1, recombinant UPK2 extracellular domain …; assay: SPR, BIAcore X-100; antibody captured, UPK2-His as mobile phase; remark U-value = 15, fit poor, for reference only
Protocol: as §1

[6] = target: T1, recombinant UPK2 extracellular domain …; assay: SPR, BIAcore X-100; antibody captured, UPK2-His as mobile phase; remark Kd overrun, fit poor, for reference only
Protocol: as §1

[7] = target: T2, recombinantly expressed PAP (ACPP-His) (Homo sapiens (Human), UniProt P15309 33-379, limits assumed); assay: SPR, BIAcore X-100; antibody captured by anti-human antibody on chip, recombinant PAP as mobile phase; speculated value, read as weaker than 100 nM because the next sentence says S5D1 has the higher affinity
T2 construct: ACPP gene cloned into PTSE-His, expressed in HEK293, purified on Histrap FF; also called serum prostatic acid phosphatase; ACPP antigen; not shown: His tag from vector PTSE-His
T2 sequence: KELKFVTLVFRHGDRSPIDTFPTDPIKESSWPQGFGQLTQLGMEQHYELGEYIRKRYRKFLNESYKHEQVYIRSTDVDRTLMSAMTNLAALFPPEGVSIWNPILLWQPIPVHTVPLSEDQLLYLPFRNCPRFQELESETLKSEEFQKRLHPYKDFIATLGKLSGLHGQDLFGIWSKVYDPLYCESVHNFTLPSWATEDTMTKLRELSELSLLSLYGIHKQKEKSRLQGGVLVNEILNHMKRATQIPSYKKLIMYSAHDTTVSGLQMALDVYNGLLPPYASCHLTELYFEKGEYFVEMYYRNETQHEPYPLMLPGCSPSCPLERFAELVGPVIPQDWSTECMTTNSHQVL
Protocol: (§2) For the affinity assay in FIG. 10, the affinity of two monoclonal antibodies, S5D1 and S5F2, was analyzed using GE's BIAcore X-100 Biomolecular Interaction Analyzer. Affinity analysis was performed using a conventional procedure. The human monoclonal antibody S5D1 or S5F2 was captured using an anti-human antibody coated on a chip. Affinity analysis was then performed using different concentrations of recombinantly expressed PAP as the mobile phase. […] S5D1 has a higher affinity for ACPP antigen.

[8] = target: T2, recombinantly expressed PAP (ACPP-His); assay: SPR, BIAcore X-100; antibody captured by anti-human antibody on chip, recombinant PAP as mobile phase
Protocol: as §2

[9] = target: T2, recombinantly expressed PAP (ACPP-His); assay: BIAcore X-100, antibody captured by anti-human antibody on the chip, recombinant PAP as the mobile phase
Protocol: as §2

B1: scFv UPK2-S2B7 (phage display clone) (scFv)
scFv: EVQLQQSGAELMKPGTSVKMSCKAAGYTFTKYWIGWVKQRPGHGLEWIGDIYPGGGYTLFNEKFKGKATLTADTSSSTAYMQLSSLTSEDSAIYYCARGNYWGQGTTLTVSSGGGGSGGGGSGGGGSDVVMTQTPLTLSVTIGQPASISCKSSQSLLDSDGKTYLNWLLQRPGQSPKRLIYLVSKLDSGVPDRFTGSGSGTDFTLKISRVEAEDLGVYYCWQGTHFPHTFGGGTKLEMK
notes: also called clone S2B7
EC50 (read off the curve) [1]: ~3e+10 cfu/ml

B2: recombinant anti-UPK2 monoclonal antibody S2B7 (murine-human chimeric) (antibody, V domains shown)
VH: EVQLQQSGAELMKPGTSVKMSCKAAGYTFTKYWIGWVKQRPGHGLEWIGDIYPGGGYTLFNEKFKGKATLTADTSSSTAYMQLSSLTSEDSAIYYCARGNYWGQGTTLTVSS
VL: not shown
notes: Murine variable regions, human constant regions (vectors pTSEG1n, pTSEK); also called UPK2-S2B7
EC50 (read off the curve) [2]: ~0.5 nM | Kd [3]: 23.4 nM

B3: recombinant anti-UPK2 monoclonal antibody S2E2 (murine-human chimeric) (antibody, V domains shown)
VH: QVKLQQSGPELVRPGASVKMSCKASGYTFTTYWMHWVKQRPGQGLEWIGMIDPSNSDTRLNQKFKDKATLNVDTSSNTAYMHLSSLTSEDSAVYYCTLGGTEYWGQGATLTVSS
VL: SIVMTQSPATLSVTPGDRVSLSCRASQSIGDYLHWFQQKSHESPRLLIKYASQSISGIPSRFSGSGSGSDFTLIINTMEPEDVGVYYCQNAHTYPYTFGGGTKLEIK
notes: Murine variable regions, human constant regions (vectors pTSEG1n, pTSEK), HEK293; also called UPK2-S2E2
EC50 (read off the curve) [2]: ~0.5 nM | Kd [4]: 2.82 nM

B4: recombinant anti-UPK2 monoclonal antibody S7F9 (murine-human chimeric) (antibody, V domains shown)
VH: QVQLKQSGPGLVRPGASVTMSCKASGYTFTSNWMHWVKQRPGQGLDWIGMIDPSNSDTRLNQKFKDKATLNVDKSSNTAYMQLSSLTSDDSAVYYCMRGGGDYWGQGTTLTVSS
VL: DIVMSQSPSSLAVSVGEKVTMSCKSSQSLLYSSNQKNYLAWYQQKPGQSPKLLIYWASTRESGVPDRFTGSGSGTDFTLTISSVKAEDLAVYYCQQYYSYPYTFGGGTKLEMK
notes: Murine variable regions, human constant regions (vectors pTSEG1n, pTSEK), HEK293; also called UPK2-S7F9
EC50 (read off the curve) [2]: ~0.5 nM | Kd [4]: 16.7 nM

B5: recombinant anti-UPK2 monoclonal antibody S3D10 (murine-human chimeric) (antibody, V domains shown)
VH: QVQLQQSGAELVRSGASVKLSCTDSGFNIKDYYMNWVKQRPEQGLEWIGWIDPENGVTQYDPKFQGKATVTADTFSNTAYLQLSSLTSEDTAVYYCNANYKYDWFGYWGQGTLVTVSA
VL: NIVMTQSPSSLSASLGERVSLTCRASQEISGYLSWLQQKPDGTIKRLIYAASTLDSGVPERFSGSRSGSDYSLTISSLESEDFADYYCLQYASYPWTFGGGTKLEMK
notes: Murine variable regions, human constant regions (vectors pTSEG1n, pTSEK), HEK293; also called UPK2-S3D10
Kd [5]: 4.06 µM

B6: recombinant anti-UPK2 monoclonal antibody S7F11 (murine-human chimeric) (antibody, V domains shown)
VH: EVQLKESGAELVRSGASVKLSCTASAFNIKDYYMNWMKQRPEQGLEWIGWIDPENGDTKYAPKFQGKATITADTSSSTAYLQLTSLTSEDSAVFYCNVNYKYDWFAYWGQGTLVTVSA
VL: DVVMTQSQKFMSTSVGDRVSVTCKASQNVGTNVAWYQQKPGQSPRALIYSASYRYSGVPDRFTGSGSGTDFTLTISNVQSEDLAEYFCQQYNTYPWTFGGGTKLEIK
notes: the first set is used here; Murine variable regions, human constant regions; also called UPK2-S7F11
Kd [6]: 2.32 nM

B7: ACPP antibody S5F2 (human full antibody) (antibody, V domains shown)
VH: QVQLVQSGAEVKKPGSSVKVSCKASEDTFSSYVISWVRQAPGQGLEWMGAFIPLLGRVHYAQEFQGRLTITADESTGTAYMELKGLRSDDTAMYYCARDQGFAGDDAFDIWGQGTMVTVSS
VL: LPVLTQPPSASGTPGQRVTISCSGSSSNIGSNAVDWYQQLPGTAPKLLIYTNNRRPSGVPDRFSGSKSGTSGSLAISGLQFEDEADYYCAAWDDSLSGVIFGGGTKVTVL
notes: Human full antibody from vectors pTSEG1n and pTSEK, HEK293
Kd [7]: > 100 nM

B8: recombinant anti-UPK2 monoclonal antibody S3C10 (murine-human chimeric) (antibody, V domains shown)
VH: QVQLKESGGGLVQPGESLKLSCESSEFPFPSHDMSWVRKTPEKRLELVAAINSDGGSTYYPDTMERRFIISRDNTKKTLYLQMSSLRSEDTALYYCASLPTFAYWGQGTLVTVSA
VL: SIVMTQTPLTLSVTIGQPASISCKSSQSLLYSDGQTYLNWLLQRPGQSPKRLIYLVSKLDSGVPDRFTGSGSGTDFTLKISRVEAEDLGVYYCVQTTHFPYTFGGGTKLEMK
notes: Murine variable regions, human constant regions (vectors pTSEG1n, pTSEK), HEK293; also called UPK2-S3C10
EC50 (read off the curve) [2]: ~0.5 nM | Kd [4]: 0.911 nM

B9: ACPP antibody S5D1 (human full antibody) (antibody, V domains shown)
VH: EVQLVQSGAEVKKPGESLKISCKGSGYTFTNYWIGWVRQMPGKGLEWMGRIYPSDSYTNYSPSFQGQVTISADKSISTAYLQWSSLKASDTAMYYCARDLEPTHHYSWGQGTLVTVSS
VL: QSVLTQPASVSGSPGQSVTISCTGTSSDVGGYNYVSWYQQHPGKPPKLMIYEVSKRPSGVPDRFSGSKSGNTASLTISGLQAEDEADYYCSSHTSSNTLIFGGGTKVTVL
notes: Variable regions cloned into vectors pTSEG1n (heavy) and pTSEK (light) and expressed in HEK293 as human full antibody; also called monoclonal antibody S5D1
Kd [8]: ~9 nM | Kd [9]: 9.02 nM

B10: recombinant anti-UPK2 monoclonal antibody S3A4 (murine-human chimeric) (antibody, V domains shown)
VH: EVKLKQSGAELVKPGASVKLSCKASGYTLTSYYIYWVKQRPGQGLEWIGGISPSNGNTYFTEKFKNMATLTVDKSSNTAYMQLSSLTSEDSAVYYCARNYDYDVGFAYWGQGTLVTVSS
VL: DVVMTQTPLSLPVSLGDQASISCRSSQSIVHSNGNTYLEWYLQKPGQSPKLLIYKVSNRFSGVPDRFSGSGSGTDFTLKISRVEAEDLGVYYCFQGSHVPFTFGSGTKLEIK
notes: Murine variable regions, human constant regions (vectors pTSEG1n, pTSEK), HEK293; also called UPK2-S3A4
EC50 (read off the curve) [2]: ~0.6 nM | Kd [4]: 27.1 nM
